These results are taken from the Human Domainome abundance scans (Beltran et al. 2025).

± gives the uncertainty stated by the source.

B1: Retinoic acid receptor RXR-alpha, residues 132 to 208; numbered along this chain, P19793 (parent)
chain: KHICAICGDRSSGKHYGVYSCEGCKGFFKRTVRKDLTYTCRDNKDCLIDKRQRNRCQYCRYQKCLAMGMKREAVQEE

Variants of B1 are the subject of this series. The series is described as follows: abundance fitness (aPCA) (normalised: wild type 0, dead -1); higher = more abundant; growth selection in yeast, the domain comes from the species named. To be noted: Homo sapiens.
On to KHICAICGDRSSGKHYGVYSCEGCKGFFKRTVRKDLTYTCRDNKDCLIDKRQRNRCQYCRYQKCLAMGDKREAVQEE [M69D], for which the abundance fitness is -0.733 ± 0.075.

For KHICAICGDRSSGKHYGVYSCEGCKGFFKRTVRKDLTYTCRDNKDCLIDKRQRNRCQYCRYQKCLAMGCKREAVQEE [M69C], the abundance fitness was -0.09 ± 0.038. The figure for KHICAICGDRSSGKHYGVYSCEGCKGFFKRTVRKDLTYTCRDNKDCLIDKRQRNRCQYCRYQKCLAMGHKREAVQEE [M69H] is -0.548 ± 0.047; for KHICAICGDRSSGKHYGVYSCEGCKGFFKRTVRKDLTYTCRDNKDCLIDKRQRNRCQYCRYQKCLAMGEKREAVQEE [M69E] it is -0.322 ± 0.079. The value for KHICAICGDRSSGKHYGVYSCEGCKGFFKRTVRKDLTYTCRDNKDCLIDKRQRNRCQYCRYQKCLAMGAKREAVQEE [M69A] was -0.069 ± 0.034. The value for KHICAICGDRSSGKHYGVYSCEGCKGFFKRTVRKDLTYTCRDNKDCLIDKRQRNRCQYCRYQKCLAMGGKREAVQEE [M69G] was -0.159 ± 0.042. In the case of KHICAICGDRSSGKHYGVYSCEGCKGFFKRTVRKDLTYTCRDNKDCLIDKRQRNRCQYCRYQKCLAMGFKREAVQEE [M69F], the abundance fitness came out at 0.051 ± 0.031. The figure for KHICAICGDRSSGKHYGVYSCEGCKGFFKRTVRKDLTYTCRDNKDCLIDKRQRNRCQYCRYQKCLAMGKKREAVQEE [M69K] is -0.482 ± 0.074; for KHICAICGDRSSGKHYGVYSCEGCKGFFKRTVRKDLTYTCRDNKDCLIDKRQRNRCQYCRYQKCLAMGIKREAVQEE [M69I] it is -0.275 ± 0.038. The figure for KHICAICGDRSSGKHYGVYSCEGCKGFFKRTVRKDLTYTCRDNKDCLIDKRQRNRCQYCRYQKCLAMTMKREAVQEE [G68T] is -0.357 ± 0.036; for KHICAICGDRSSGKHYGVYSCEGCKGFFKRTVRKDLTYTCRDNKDCLIDKRQRNRCQYCRYQKCLAMNMKREAVQEE [G68N] it is -0.02 ± 0.033; for KHICAICGDRSSGKHYGVYSCEGCKGFFKRTVRKDLTYTCRDNKDCLIDKRQRNRCQYCRYQKCLAMVMKREAVQEE [G68V] it is -0.645 ± 0.057. Regarding KHICAICGDRSSGKHYGVYSCEGCKGFFKRTVRKDLTYTCRDNKDCLIDKRQRNRCQYCRYQKCLAMSMKREAVQEE [G68S], the abundance fitness was -0.108 ± 0.029. With KHICAICGDRSSGKHYGVYSCEGCKGFFKRTVRKDLTYTCRDNKDCLIDKRQRNRCQYCRYQKCLAMLMKREAVQEE [G68L], the abundance fitness was -0.362 ± 0.032.

Take KHICAICGDRSSGKHYGVYSCEGCKGFFKRTVRKDLTYTCRDNKDCLIDKRQRNRCQYCRYQKCLAMKMKREAVQEE [G68K]: the abundance fitness was -0.079 ± 0.056. The figure for KHICAICGDRSSGKHYGVYSCEGCKGFFKRTVRKDLTYTCRDNKDCLIDKRQRNRCQYCRYQKCLAMQMKREAVQEE [G68Q] is -0.054 ± 0.047; for KHICAICGDRSSGKHYGVYSCEGCKGFFKRTVRKDLTYTCRDNKDCLIDKRQRNRCQYCRYQKCLAMHMKREAVQEE [G68H] it is -0.103 ± 0.035; for KHICAICGDRSSGKHYGVYSCEGCKGFFKRTVRKDLTYTCRDNKDCLIDKRQRNRCQYCRYQKCLAMDMKREAVQEE [G68D] it is -0.06 ± 0.047. As for KHICAICGDRSSGKHYGVYSCEGCKGFFKRTVRKDLTYTCRDNKDCLIDKRQRNRCQYCRYQKCLAMEMKREAVQEE [G68E], the abundance fitness was -0.112 ± 0.057. The figure for KHICAICGDRSSGKHYGVYSCEGCKGFFKRTVRKDLTYTCRDNKDCLIDKRQRNRCQYCRYQKCLAMFMKREAVQEE [G68F] is -0.091 ± 0.031. The value for KHICAICGDRSSGKHYGVYSCEGCKGFFKRTVRKDLTYTCRDNKDCLIDKRQRNRCQYCRYQKCLAMCMKREAVQEE [G68C] was -0.136 ± 0.041. For KHICAICGDRSSGKHYGVYSCEGCKGFFKRTVRKDLTYTCRDNKDCLIDKRQRNRCQYCRYQKCLAMIMKREAVQEE [G68I], the abundance fitness was -0.544 ± 0.049. For the variant KHICAICGDRSSGKHYGVYSCEGCKGFFKRTVRKDLTYTCRDNKDCLIDKRQRNRCQYCRYQKCLAMRMKREAVQEE [G68R], the abundance fitness was -0.238 ± 0.038.

Take KHICAICGDRSSGKHYGVYSCEGCKGFFKRTVRKDLTYTCRDNKDCLIDKRQRNRCQYCRYQKCLAMYMKREAVQEE [G68Y]: the abundance fitness was -0.227 ± 0.04. The value for KHICAICGDRSSGKHYGVYSCEGCKGFFKRTVRKDLTYTCRDNKDCLIDKRQRNRCQYCRYQKCLAMMMKREAVQEE [G68M] was -0.26 ± 0.046; that for KHICAICGDRSSGKHYGVYSCEGCKGFFKRTVRKDLTYTCRDNKDCLIDKRQRNRCQYCRYQKCLAMWMKREAVQEE [G68W] was -0.302 ± 0.056; that for KHICAICGDRSSGKHYGVYSCEGCKGFFKRTVRKDLTYTCRDNKDCLIDKRQRNRCQYCRYQKCKAMGMKREAVQEE [L65K] was -0.008 ± 0.046. The value for KHICAICGDRSSGKHYGVYSCEGCKGFFKRTVRKDLTYTCRDNKDCLIDKRQRNRCQYCRYQKCSAMGMKREAVQEE [L65S] was -0.061 ± 0.035; that for KHICAICGDRSSGKHYGVYSCEGCKGFFKRTVRKDLTYTCRDNKDCLIDKRQRNRCQYCRYQKCYAMGMKREAVQEE [L65Y] was 0.015 ± 0.078; that for KHICAICGDRSSGKHYGVYSCEGCKGFFKRTVRKDLTYTCRDNKDCLIDKRQRNRCQYCRYQKCNAMGMKREAVQEE [L65N] was 0.11 ± 0.092. The value for KHICAICGDRSSGKHYGVYSCEGCKGFFKRTVRKDLTYTCRDNKDCLIDKRQRNRCQYCRYQKCRAMGMKREAVQEE [L65R] was -0.111 ± 0.032. On to KHICAICGDRSSGKHYGVYSCEGCKGFFKRTVRKDLTYTCRDNKDCLIDKRQRNRCQYCRYQKCVAMGMKREAVQEE [L65V], for which the abundance fitness stood at 0.033 ± 0.032.

On to KHICAICGDRSSGKHYGVYSCEGCKGFFKRTVRKDLTYTCRDNKDCLIDKRQRNRCQYCRYQKCTAMGMKREAVQEE [L65T], for which the abundance fitness came to 0.057 ± 0.053.

KHICAICGDRSSGKHYGVYSCEGCKGFFKRTVRKDLTYTCRDNKDCLIDKRQRNRCQYCRYQKCWAMGMKREAVQEE [L65W]: the abundance fitness was -0.108 ± 0.042. Consider KHICAICGDRSSGKHYGVYSCEGCKGFFKRTVRKDLTYTCRDNKDCLIDKRQRNRCQYCRYQKCMAMGMKREAVQEE [L65M], for which the abundance fitness was -0.058 ± 0.041.
